For the assay, the target named is BsaXI S subunit (specificity subunit), WT TRD1-CR1-TRD2-CR2 (Bacillus stearothermophilus 25B (Geobacillus sp. 25B)). Description: co-purification through chromatography columns.

As to “BsaXI RM subunit (restriction-modification fusion subunit) (enzyme)”, the stoichiometry N (commonly the number of molecules, sites or subunits per partner or assembly) amounted to 2 RM per S.

For the origin of these results see paper doi:10.1101/2022.03.14.484276.
